According to EP4803549A1 (Leads Biolabs Inc., dated 2026):

What was measured:
[1] = target: T1, human BCMA-His protein (ACRO, Cat#: BCA-H522y) (human, UniProt Q02223 1-54); test: BLI (ForteBio Octet RED96e), antibody on AHC sensor, 100 nM human BCMA-His, 1:1 model
T1 construct: Bought protein; also called Human BCMA protein; huBCMA-his
T1 sequence: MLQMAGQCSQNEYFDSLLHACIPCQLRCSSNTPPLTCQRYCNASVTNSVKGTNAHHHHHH

[2] = target: T2, human BCMA protein expressed on the cell surface (human, UniProt Q02223 1-184); test: flow cytometry on CHOK1-huBCMA cells
T2 construct: whole, on cells; also called CHO-K1-huBCMA; CHOK1-huBCMA
T2 sequence (looked up): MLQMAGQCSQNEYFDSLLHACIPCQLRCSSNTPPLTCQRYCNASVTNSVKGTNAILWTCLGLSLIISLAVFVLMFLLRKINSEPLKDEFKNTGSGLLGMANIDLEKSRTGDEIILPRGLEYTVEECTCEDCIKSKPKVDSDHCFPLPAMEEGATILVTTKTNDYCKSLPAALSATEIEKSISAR

[3] = target: T3, human GPRC5D protein expressed on the cell surface (human, UniProt Q9NZD1 1-345); test: flow cytometry on 293T-huGPRC5D cells
T3 construct: NP_061124.1 (NCBI) and Q9NZD1 (UniProt) are printed; also called CHO-K1-huGPRC5D
T3 sequence (Q9NZD1 whole entry): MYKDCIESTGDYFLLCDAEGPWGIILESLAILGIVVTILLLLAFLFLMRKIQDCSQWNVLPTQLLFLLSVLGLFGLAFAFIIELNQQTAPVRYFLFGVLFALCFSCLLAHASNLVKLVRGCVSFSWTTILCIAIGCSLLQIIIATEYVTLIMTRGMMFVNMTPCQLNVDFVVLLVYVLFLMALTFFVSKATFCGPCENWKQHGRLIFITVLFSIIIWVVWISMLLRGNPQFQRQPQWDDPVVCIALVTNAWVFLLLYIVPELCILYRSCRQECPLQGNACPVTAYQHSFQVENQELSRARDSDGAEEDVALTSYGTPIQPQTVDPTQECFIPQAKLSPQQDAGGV

B1: 269B094 (a fully human monoclonal antibody targeting BCMA) (antibody, V domains shown)
VH: DVQLVESGGGLVQPGGSLRLSCAASGRTFSSIVMGWFRQAPGKEREFVGAIMWNDGITYLQDSVKGRFTIFRDNAKNTVYLQMNSLKLEDTAVYYCAASKGRYSEYEYWGQGTQVTVSS
notes: also called control antibody; control sample
Question: Which results are given for B1?
Answer: Kd [1]: 1510 pM; koff [1]: 0.00155 s⁻¹; kon [1]: 1e+06 M⁻¹ s⁻¹

B2: 2xhuHA68-4-CD3ScFv (bispecific antibody)
heavy 1: EVQLVETGGGLIQPGGSLRLSCAASGFTFSPSAMSWARQAPGKGLEWVSGIYGDGKAEYADSVKGRFTISRDNSKNTVYLQMNSLRAEDTAVYSCAVGIRPTDAPWAASLRGQGTLVTVSSGGGGSEVQLVETGGGLIQPGGSLRLSCAASGFTFSPSAMSWARQAPGKGLEWVSGIYGDGKAEYADSVKGRFTISRDNSKNTVYLQMNSLRAEDTAVYSCAVGIRPTDAPWAASLRGQGTLVTVSSEPKSSDKTHTCPPCPAPEAAGGPSVFLFPPKPKDTLMISRTPEVTCVVVAVSHEDPEVKFNWYVDGVEVHNAKTKPREEQYNSTYRVVSVLTVLHQDWLNGKEYKCKVSNKALAAPIEKTISKAKGQPREPQVCTLPPSRDELTKNQVSLSCAVKGFYPSDIAVEWESNGQPENNYKTTPPVLDSDGSFFLVSKLTVDKSRWQQGNVFSCSVMHEALHNHYTQKSLSLSPGK
heavy 2: not shown
notes: HC1 carries two huHA68-4 VHHs in tandem (GGGGS linker) on Fc hole; HC2 is CD3ScFv-knob; also called anti-CD3/BCMA bispecific antibody; diabody
Question: Does B2 bind [2]?
Answer: binds

B3: 2xhuBH56-3-CD3ScFv (bispecific antibody)
heavy 1: EVQVVESGGGLIQPGGSLRLSCAASGFTFAPSAMSWARQPPGKEVEWVSGIYGDGRTTYADSVKGRFTISRDNSKNTVYLQMNSLRAEDTAVYYCVVGIRLLSESWAQALRGQGTQVTVSSGGGGSEVQVVESGGGLIQPGGSLRLSCAASGFTFAPSAMSWARQPPGKEVEWVSGIYGDGRTTYADSVKGRFTISRDNSKNTVYLQMNSLRAEDTAVYYCVVGIRLLSESWAQALRGQGTQVTVSSEPKSSDKTHTCPPCPAPEAAGGPSVFLFPPKPKDTLMISRTPEVTCVVVAVSHEDPEVKFNWYVDGVEVHNAKTKPREEQYNSTYRVVSVLTVLHQDWLNGKEYKCKVSNKALAAPIEKTISKAKGQPREPQVCTLPPSRDELTKNQVSLSCAVKGFYPSDIAVEWESNGQPENNYKTTPPVLDSDGSFFLVSKLTVDKSRWQQGNVFSCSVMHEALHNHYTQKSLSLSPGK
heavy 2: not shown
notes: HC1 carries two huBH56-3 VHHs in tandem (GGGGS linker) on Fc hole; HC2 is CD3ScFv-knob; also called anti-CD3/BCMA bispecific antibody; diabody
Question: Does B3 bind [2]?
Answer: binds

B4: BH56-IgG (antibody, V domains shown)
VH: EVQVVESGGGLVQAGESLTLSCAASGFTFAPSAMSWARQPPGKEVEWVSGIYGDGRTTYADSVKGRFTISRDNAKKTVTLQMNNLEPEDSGNYICVVGIRLLSESWAQALRGQGTQVTVSS
notes: also called anti-human BCMA chimeric antibody
Question: For B4, which Kd [1] is on record?
Answer: < 1 pM

Question: What about the koff [1] of the same binder?
Answer: < 1e-07 s⁻¹

Question: And the kon [1]?
Answer: 1e+06 M⁻¹ s⁻¹

B5: huBH56-3-CD3ScFv (bispecific antibody)
heavy 1: EVQVVESGGGLIQPGGSLRLSCAASGFTFAPSAMSWARQPPGKEVEWVSGIYGDGRTTYADSVKGRFTISRDNSKNTVYLQMNSLRAEDTAVYYCVVGIRLLSESWAQALRGQGTQVTVSSEPKSSDKTHTCPPCPAPEAAGGPSVFLFPPKPKDTLMISRTPEVTCVVVAVSHEDPEVKFNWYVDGVEVHNAKTKPREEQYNSTYRVVSVLTVLHQDWLNGKEYKCKVSNKALAAPIEKTISKAKGQPREPQVCTLPPSRDELTKNQVSLSCAVKGFYPSDIAVEWESNGQPENNYKTTPPVLDSDGSFFLVSKLTVDKSRWQQGNVFSCSVMHEALHNHYTQKSLSLSPGK
heavy 2: not shown
notes: HC1 huBH56-3-hole (VHH, EPKSS, Fc hole); HC2 CD3ScFv-knob (CD3 VH, linker, CD3 VL, EPKSS, Fc knob); also called anti-CD3/BCMA bispecific antibody; diabody
Question: Does B5 bind [2]?
Answer: binds

B6: huBH56-3-IgG (antibody, V domains shown)
VH: EVQVVESGGGLIQPGGSLRLSCAASGFTFAPSAMSWARQPPGKEVEWVSGIYGDGRTTYADSVKGRFTISRDNSKNTVYLQMNSLRAEDTAVYYCVVGIRLLSESWAQALRGQGTQVTVSS
notes: Humanized VHH-Fc heavy-chain antibody; Fc with L234A, L235A, D265A, P329A
Question: Which results are given for B6?
Answer: Kd [1]: < 1 pM; koff [1]: < 1e-07 s⁻¹; kon [1]: 1e+06 M⁻¹ s⁻¹

B7: huBH56-4-IgG (antibody, V domains shown)
VH: EVQLVESGGGLIQPGGSLRLSCAASGFTFAPSAMSWARQPPGKEVEWVSGIYGDGRTYYADSVKGRFTISRDNSKNTVYLQMNSLRAEDTAVYYCVVGIRLLSESWAQALRGQGTQVTVSS
notes: Humanized VHH-Fc heavy-chain antibody
Question: For B7, which Kd [1] is on record?
Answer: < 1 pM

Question: What about the koff [1] of the same binder?
Answer: < 1e-07 s⁻¹

Question: What about the kon [1] of the same binder?
Answer: 1e+06 M⁻¹ s⁻¹

B8: huBH56-6-IgG (antibody, V domains shown)
VH: EVQLVESGGGLIQPGGSLRLSCAASGFTFAPSAMSWARQPPGKGLEWVSGIYGDGRTYYADSVKGRFTISRDNSKNTVYLQMNSLRAEDTAVYYCVVGIRLLSESWAQALRGQGTQVTVSS
notes: as for B7
Question: What does the source list for B8?
Answer: Kd [1]: < 1 pM; koff [1]: < 1e-07 s⁻¹; kon [1]: 979000 M⁻¹ s⁻¹

B9: huBH56-5-IgG (antibody, V domains shown)
VH: EVQVVESGGGLIQPGGSLRLSCAASGFTFAPSAMSWARQPPGKEVEWVSGIYGDGRTTYADSVKGRFTISRDNSKNTVYLQMNSLRAEDTAVYICVVGIRLLSESWAQALRGQGTQVTVSS
notes: as for B7
Question: How did the Kd [1] turn out when B9 was run?
Answer: < 1 pM

Question: And the koff [1]?
Answer: < 1e-07 s⁻¹

Question: And the kon [1]?
Answer: 1e+06 M⁻¹ s⁻¹

B10: huHA68-4-IgG (antibody, V domains shown)
VH: EVQLVETGGGLIQPGGSLRLSCAASGFTFSPSAMSWARQAPGKGLEWVSGIYGDGKAEYADSVKGRFTISRDNSKNTVYLQMNSLRAEDTAVYSCAVGIRPTDAPWAASLRGQGTLVTVSS
notes: as for B7
Question: For B10, which Kd [1] is on record?
Answer: < 1 pM

Question: What about the koff [1] of the same binder?
Answer: < 1e-07 s⁻¹

Question: What about the kon [1] of the same binder?
Answer: 1e+06 M⁻¹ s⁻¹

B11: HA68-IgG (antibody, V domains shown)
VH: QVQLVETGGGLVQPGGSLRLSCAASGFTFSPSAMNWARQAPGKGLEWVAGIYGDGKAEYADSVKGRFTISRDNAKNMVYLQMVNLRPEDTAVYSCAVGIRPTDAPWAASLRGQGTQVTVSS
notes: as for B4
Question: How did the Kd [1] turn out when B11 was run?
Answer: < 1 pM

Question: What about the koff [1] of the same binder?
Answer: < 1e-07 s⁻¹

Question: What about the kon [1] of the same binder?
Answer: 1e+06 M⁻¹ s⁻¹

B12: huHA68-3-IgG (antibody, V domains shown)
VH: EVQLVETGGGLIQPGGSLRLSCAASGFTFSPSAMSWARQAPGKGLEWVSGIYGDGKAEYADSVKGRFTISRDNSKNTVYLQMNSLRAEDTAVYYCAVGIRPTDAPWAASLRGQGTLVTVSS
notes: as for B7
Question: For B12, which Kd [1] is on record?
Answer: < 1 pM

Question: And the koff [1]?
Answer: < 1e-07 s⁻¹

Question: What about the kon [1] of the same binder?
Answer: 1e+06 M⁻¹ s⁻¹

B13: huHA68-4-CD3ScFv (bispecific antibody)
heavy 1: EVQLVETGGGLIQPGGSLRLSCAASGFTFSPSAMSWARQAPGKGLEWVSGIYGDGKAEYADSVKGRFTISRDNSKNTVYLQMNSLRAEDTAVYSCAVGIRPTDAPWAASLRGQGTLVTVSSEPKSSDKTHTCPPCPAPEAAGGPSVFLFPPKPKDTLMISRTPEVTCVVVAVSHEDPEVKFNWYVDGVEVHNAKTKPREEQYNSTYRVVSVLTVLHQDWLNGKEYKCKVSNKALAAPIEKTISKAKGQPREPQVCTLPPSRDELTKNQVSLSCAVKGFYPSDIAVEWESNGQPENNYKTTPPVLDSDGSFFLVSKLTVDKSRWQQGNVFSCSVMHEALHNHYTQKSLSLSPGK
heavy 2: not shown
notes: HC1 huHA68-4-hole; HC2 CD3ScFv-knob; also called anti-CD3/BCMA bispecific antibody; diabody
Question: Does B13 bind [2]?
Answer: binds

B14: humanized anti-GPRC5D VHH-Fc antibody 8H5 (antibody, human IgG1, V domains shown)
VH: EVQLLESGGGLVQPGGSLRLSCAASGIFLSASVMSWYRQAPGKQRELVASMLNSNTNYADSVKGRFTISRDNSKNTMYLQMNSLRAEDTAVYYCNAERSGVYWGQGTQVTVSS
notes: also called hu8H5; humanized anti-GPRC5D VHH 8H5-Fc
Question: Does B14 bind [3]?
Answer: binds
